Source: publication PMC8070792, “Impaired Ca^2+ Sensitivity of a Novel GCAP1 Variant Causes Cone Dystrophy and Leads to Abnormal Synaptic Transmission Between Photoreceptors and Bipolar Cells” (International Journal of Molecular Sciences, 2021)
Positions count from the first letter of the chain named. Numbers in names are those of the source. Like-named read-outs stand apart in the source and are kept apart here.

B1: wild-type human GCAP1-E6S (guanylate cyclase-activating protein 1, myristoylated) (natural protein)
chain: MGNVMSGKSVEELSSTECHQWYKKFMTECPSGQLTLYEFRQFFGLKNLSPSASQYVEQMFETFDFNKDGYIDFMEYVAALSLVLKGKVEQKLRWYFKLYDVDGNGCIDRDELLTIIQAIRAINPCSDTTMTAEEFTDTVFSKIDVNGDGELSLEEFIEGVQKDQMLLDTLTRSLDLTRIVRRLQNGEQDEEGADEAAEAAG
modifications: myristoylation on the N-terminal Gly residue
B2: GCAP1 N104K-G105R (guanylate cyclase-activating protein 1, myristoylated, on the E6S background) (natural protein, human, UniProt P43080 1-201, looked up)
chain: B1 chain with N104K, G105R
modifications: myristoylation on the N-terminal Gly residue
notes: cDNA in pET-11a between NdeI and NheI; E6S introduced to allow myristoylation by yeast NMT; N104K and G105R introduced by site-directed mutagenesis; N104K-G105R is the patient's variant; E6S is a change made by people; Myristoylation on the N-terminal Gly implies that the initiator Met is removed (surmised); No tag is mentioned; also called N104K-G105R GCAP1; double mutant; source: E. coli …

Legend:
[1] = biological target: T1, human guanylate cyclase 2 (GC2) (human, UniProt P51841 51-1108)
T1 sequence (looked up): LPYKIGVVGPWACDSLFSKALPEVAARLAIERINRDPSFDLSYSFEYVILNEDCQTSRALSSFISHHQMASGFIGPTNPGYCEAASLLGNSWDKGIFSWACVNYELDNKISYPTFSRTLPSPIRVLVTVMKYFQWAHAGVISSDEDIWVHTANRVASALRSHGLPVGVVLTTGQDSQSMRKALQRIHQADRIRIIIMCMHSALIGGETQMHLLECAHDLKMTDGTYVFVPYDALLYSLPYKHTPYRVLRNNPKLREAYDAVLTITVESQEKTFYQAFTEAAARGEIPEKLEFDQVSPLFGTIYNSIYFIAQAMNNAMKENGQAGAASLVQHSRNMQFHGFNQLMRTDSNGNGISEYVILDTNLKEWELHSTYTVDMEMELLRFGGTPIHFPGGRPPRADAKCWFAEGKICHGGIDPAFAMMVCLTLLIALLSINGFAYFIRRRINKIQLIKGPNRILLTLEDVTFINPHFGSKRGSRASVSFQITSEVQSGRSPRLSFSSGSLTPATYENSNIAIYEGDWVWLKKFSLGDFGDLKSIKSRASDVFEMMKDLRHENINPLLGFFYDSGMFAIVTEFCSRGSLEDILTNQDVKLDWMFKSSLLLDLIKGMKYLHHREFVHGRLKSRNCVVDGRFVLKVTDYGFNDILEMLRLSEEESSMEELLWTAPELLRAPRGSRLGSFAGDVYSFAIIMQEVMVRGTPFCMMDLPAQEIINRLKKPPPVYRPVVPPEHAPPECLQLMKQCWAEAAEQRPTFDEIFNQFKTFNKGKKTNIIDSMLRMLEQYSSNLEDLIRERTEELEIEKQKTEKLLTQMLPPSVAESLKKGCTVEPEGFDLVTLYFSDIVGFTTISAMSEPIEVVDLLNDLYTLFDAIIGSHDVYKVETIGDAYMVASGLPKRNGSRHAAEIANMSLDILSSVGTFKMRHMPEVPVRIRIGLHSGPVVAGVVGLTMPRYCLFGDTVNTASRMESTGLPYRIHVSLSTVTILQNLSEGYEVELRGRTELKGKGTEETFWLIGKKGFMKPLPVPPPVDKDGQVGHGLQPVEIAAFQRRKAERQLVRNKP

[2] = biological target: T2, human guanylate cyclase 1 (GC1) (human, UniProt Q02846 52-1103)
T2 sequence (looked up): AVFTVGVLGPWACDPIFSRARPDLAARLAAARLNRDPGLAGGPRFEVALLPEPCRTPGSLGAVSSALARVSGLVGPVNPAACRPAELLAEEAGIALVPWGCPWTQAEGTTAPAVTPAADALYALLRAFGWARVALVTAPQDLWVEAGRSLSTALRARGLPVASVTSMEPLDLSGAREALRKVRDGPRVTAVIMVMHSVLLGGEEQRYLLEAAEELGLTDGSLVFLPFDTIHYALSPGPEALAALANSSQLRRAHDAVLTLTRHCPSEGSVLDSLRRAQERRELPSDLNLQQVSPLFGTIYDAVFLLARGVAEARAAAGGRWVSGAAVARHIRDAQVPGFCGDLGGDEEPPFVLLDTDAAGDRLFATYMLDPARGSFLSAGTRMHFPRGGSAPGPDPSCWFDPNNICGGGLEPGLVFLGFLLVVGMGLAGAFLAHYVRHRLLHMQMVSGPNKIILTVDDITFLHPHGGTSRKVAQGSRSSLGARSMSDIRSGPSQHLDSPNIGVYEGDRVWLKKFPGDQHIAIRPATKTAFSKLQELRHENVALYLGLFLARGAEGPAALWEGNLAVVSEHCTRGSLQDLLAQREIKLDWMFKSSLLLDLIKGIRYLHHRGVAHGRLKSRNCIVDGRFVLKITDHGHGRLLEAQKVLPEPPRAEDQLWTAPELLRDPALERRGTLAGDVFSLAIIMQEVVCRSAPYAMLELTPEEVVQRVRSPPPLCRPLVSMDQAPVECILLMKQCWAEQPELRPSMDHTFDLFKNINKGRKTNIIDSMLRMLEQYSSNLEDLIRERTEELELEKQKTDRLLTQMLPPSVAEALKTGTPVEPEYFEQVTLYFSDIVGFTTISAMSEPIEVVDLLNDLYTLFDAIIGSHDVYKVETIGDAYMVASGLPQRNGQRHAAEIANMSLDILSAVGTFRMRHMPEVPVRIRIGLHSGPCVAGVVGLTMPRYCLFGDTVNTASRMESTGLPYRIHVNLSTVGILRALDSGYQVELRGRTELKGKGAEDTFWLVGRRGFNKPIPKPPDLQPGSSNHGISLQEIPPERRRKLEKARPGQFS

[3] = biological target: the molecule itself; assay: SEC; analytical SEC on Superose 12 10/300 GL; 42 µM protein, 200 µl injected; 20 mM Tris-HCl pH 7.5, 150 mM KCl, 1 mM DTT; with 500 µM EGTA + 1 mM Mg2+ or 500 µM Ca2+ + 1 mM Mg2+; apparent molecular mass from a calibration curve
[4] = biological target: T1, human guanylate cyclase 2 (GC2); assay: cell-based or functional assay
[5] = biological target: T2, human guanylate cyclase 1 (GC1); assay: cell-based or functional assay

Binder	X-fold of Ca2+-dependent regulation of GC2 (cGMP synthesis by HEK293 membranes with 5 µM GCAP1, low Ca2+ <19 nM against high Ca2+ ~30 µM) [1]	X-fold of Ca2+-dependent regulation of GC1 (cGMP synthesis by HEK293 membranes with 5 µM GCAP1, low Ca2+ <19 nM against high Ca2+ ~30 µM) [2]	stoichiometry N [3]	X-fold of Ca2+-dependent regulation of GC2 (cGMP synthesis by HEK293 membranes with 5 µM GCAP1, low Ca2+ <19 nM against high Ca2+ ~30 µM) [4]	X-fold of Ca2+-dependent regulation of GC1 (cGMP synthesis by HEK293 membranes with 5 µM GCAP1, low Ca2+ <19 nM against high Ca2+ ~30 µM) [5]
B1	10.8	37.4	–	–	–
B2	–	–	2	0.6	0.47
